Assay results: US20180318386A1, “PEPTIDES AND METHODS OF TREATING ENDOMETRIOSIS USING THE SAME” (BIOINCEPT, LLC, priority 2014, published 2018)

Legend:
Assay in all cases: PIF affinity resin pull-down, CD8+ cell lysate, LC-MS/MS count
[1] = biological target: 14-3-3 protein zeta/delta (human) (UniProt P63104)
[2] = biological target: Acidic leucine-rich nuclear phosphoprotein 32 family member A (human) (UniProt P39687)
Calmodulin (human) = Calmodulin (human) (UniProt P0DP23)
Calreticulin (human) = Calreticulin (human) (UniProt P27797)
[3] = biological target: Cartilage oligomeric matrix protein (human) (UniProt P49747)
Cofilin-1 (human) = Cofilin-1 (human) (UniProt P23528)
[4] = biological target: Hepatoma-derived growth factor (human) (UniProt P51858)
[5] = biological target: Isoform 2 of Heat shock protein HSP 90-alpha (human) (UniProt P07900)
[6] = biological target: Isoform 2 of Protein SET (human) (UniProt Q01105)
[7] = biological target: Nuclease-sensitive element-binding protein 1 (Fragment) (human) (UniProt P67809)
Nucleolin (human) = Nucleolin (human) (UniProt P19338)
[8] = biological target: Serum deprivation-response protein (human) (UniProt O95810)
Thrombospondin-1 (human) = Thrombospondin-1 (human) (UniProt P07996)
Thrombospondin-4 (human) = Thrombospondin-4 (human) (UniProt P35443)
Thymosin alpha-1 (human) = Thymosin alpha-1 (human) (UniProt P06454)
[9] = biological target: Tropomyosin alpha-4 chain (human) (UniProt P67936)
Tropomyosin alpha-4 chain (human), sequence (P67936 2-248 limits assumed): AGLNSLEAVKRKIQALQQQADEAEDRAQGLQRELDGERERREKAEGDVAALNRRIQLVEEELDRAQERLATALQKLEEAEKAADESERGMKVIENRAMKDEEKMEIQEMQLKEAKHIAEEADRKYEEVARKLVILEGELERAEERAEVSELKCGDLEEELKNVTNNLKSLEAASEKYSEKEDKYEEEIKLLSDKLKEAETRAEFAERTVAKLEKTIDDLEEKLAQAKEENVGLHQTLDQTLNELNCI

Thymosin alpha-1 (human), sequence (P06454 other isoform, or with tags, fused parts or gaps limits assumed): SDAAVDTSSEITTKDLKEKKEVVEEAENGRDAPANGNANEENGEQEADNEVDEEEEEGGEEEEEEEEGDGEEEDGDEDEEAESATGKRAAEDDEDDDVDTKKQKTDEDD
Cartilage oligomeric matrix protein (human), sequence (P49747 21-757 limits assumed): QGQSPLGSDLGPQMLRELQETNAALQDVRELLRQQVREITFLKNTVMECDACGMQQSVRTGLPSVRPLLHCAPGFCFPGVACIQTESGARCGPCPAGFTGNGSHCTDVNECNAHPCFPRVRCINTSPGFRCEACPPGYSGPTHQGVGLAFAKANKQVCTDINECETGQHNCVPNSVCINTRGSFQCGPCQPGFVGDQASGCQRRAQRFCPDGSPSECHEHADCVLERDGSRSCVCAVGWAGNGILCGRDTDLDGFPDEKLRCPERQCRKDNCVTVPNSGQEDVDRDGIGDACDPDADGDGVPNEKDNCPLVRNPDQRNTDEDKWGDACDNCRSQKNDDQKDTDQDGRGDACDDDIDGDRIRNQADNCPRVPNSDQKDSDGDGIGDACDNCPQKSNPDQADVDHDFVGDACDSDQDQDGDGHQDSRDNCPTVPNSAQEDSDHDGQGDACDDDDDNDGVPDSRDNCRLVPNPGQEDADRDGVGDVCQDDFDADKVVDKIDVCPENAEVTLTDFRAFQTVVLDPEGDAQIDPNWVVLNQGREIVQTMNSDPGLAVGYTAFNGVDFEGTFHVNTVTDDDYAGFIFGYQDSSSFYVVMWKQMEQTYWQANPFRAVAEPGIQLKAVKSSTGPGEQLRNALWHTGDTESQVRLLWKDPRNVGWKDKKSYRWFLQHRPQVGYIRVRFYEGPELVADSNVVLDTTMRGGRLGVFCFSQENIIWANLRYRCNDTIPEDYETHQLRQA
Hepatoma-derived growth factor (human), sequence (P51858 whole entry, canonical isoform): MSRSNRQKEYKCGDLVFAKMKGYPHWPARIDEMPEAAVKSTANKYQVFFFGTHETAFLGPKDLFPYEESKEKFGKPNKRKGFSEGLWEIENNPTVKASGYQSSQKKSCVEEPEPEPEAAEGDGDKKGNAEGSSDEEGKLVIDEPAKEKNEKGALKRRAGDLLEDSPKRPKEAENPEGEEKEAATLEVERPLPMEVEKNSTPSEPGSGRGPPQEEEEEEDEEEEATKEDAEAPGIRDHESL
Calreticulin (human), sequence (P27797 18-417 limits assumed): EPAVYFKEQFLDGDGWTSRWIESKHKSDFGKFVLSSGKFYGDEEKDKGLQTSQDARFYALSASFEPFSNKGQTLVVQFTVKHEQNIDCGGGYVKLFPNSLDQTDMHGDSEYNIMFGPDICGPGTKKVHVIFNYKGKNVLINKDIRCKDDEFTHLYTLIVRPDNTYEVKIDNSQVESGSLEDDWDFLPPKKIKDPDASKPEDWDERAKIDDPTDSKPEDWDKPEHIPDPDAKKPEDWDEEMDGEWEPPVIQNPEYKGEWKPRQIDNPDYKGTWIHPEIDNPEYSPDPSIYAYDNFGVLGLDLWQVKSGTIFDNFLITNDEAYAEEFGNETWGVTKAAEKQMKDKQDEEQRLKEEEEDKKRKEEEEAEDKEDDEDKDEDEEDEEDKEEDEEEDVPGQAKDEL
Serum deprivation-response protein (human), sequence (O95810 2-425 limits assumed): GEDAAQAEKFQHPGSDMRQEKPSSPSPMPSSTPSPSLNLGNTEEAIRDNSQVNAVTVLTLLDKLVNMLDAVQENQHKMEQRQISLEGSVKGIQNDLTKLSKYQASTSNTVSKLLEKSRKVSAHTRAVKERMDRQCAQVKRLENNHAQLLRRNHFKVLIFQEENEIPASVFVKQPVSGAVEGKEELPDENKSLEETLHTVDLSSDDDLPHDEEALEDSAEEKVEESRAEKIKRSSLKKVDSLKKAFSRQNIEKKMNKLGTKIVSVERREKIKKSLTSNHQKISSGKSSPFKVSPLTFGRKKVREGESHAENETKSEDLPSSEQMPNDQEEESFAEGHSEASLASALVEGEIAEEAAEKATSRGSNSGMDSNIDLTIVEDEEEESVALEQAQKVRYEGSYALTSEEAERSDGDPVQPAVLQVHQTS
Thrombospondin-4 (human), sequence (P35443 27-961 limits assumed): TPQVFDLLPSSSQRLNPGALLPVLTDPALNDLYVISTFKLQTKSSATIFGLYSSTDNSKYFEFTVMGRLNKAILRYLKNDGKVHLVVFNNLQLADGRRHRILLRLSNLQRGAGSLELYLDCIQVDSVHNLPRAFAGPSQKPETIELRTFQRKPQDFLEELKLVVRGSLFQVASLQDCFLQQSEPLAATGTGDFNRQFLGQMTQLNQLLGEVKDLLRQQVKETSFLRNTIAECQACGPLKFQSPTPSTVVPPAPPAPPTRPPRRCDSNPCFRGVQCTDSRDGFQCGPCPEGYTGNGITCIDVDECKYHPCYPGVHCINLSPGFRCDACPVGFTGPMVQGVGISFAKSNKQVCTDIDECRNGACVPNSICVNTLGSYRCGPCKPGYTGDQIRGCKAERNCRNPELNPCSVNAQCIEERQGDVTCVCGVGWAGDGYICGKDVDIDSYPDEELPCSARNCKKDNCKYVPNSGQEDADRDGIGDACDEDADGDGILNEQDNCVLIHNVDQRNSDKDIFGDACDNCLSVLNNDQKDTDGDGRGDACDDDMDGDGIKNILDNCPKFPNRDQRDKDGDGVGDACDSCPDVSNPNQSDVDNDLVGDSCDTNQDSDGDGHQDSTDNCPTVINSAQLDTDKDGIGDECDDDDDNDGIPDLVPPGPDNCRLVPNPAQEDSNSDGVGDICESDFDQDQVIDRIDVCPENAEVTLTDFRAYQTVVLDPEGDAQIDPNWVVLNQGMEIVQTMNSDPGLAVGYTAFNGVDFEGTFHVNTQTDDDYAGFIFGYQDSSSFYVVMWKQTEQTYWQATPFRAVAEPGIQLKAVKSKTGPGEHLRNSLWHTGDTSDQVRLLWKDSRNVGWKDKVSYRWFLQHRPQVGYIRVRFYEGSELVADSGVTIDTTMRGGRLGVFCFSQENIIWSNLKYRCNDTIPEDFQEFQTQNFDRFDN
Acidic leucine-rich nuclear phosphoprotein 32 family member A (human), sequence (P39687 whole entry): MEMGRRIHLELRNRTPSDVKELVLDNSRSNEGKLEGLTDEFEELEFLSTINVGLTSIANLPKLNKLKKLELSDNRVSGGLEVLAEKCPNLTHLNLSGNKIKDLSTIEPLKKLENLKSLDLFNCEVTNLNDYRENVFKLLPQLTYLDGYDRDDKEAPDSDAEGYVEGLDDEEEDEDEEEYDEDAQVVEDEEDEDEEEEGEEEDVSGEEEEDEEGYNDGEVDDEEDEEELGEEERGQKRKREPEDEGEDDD
Nuclease-sensitive element-binding protein 1 (Fragment) (human), sequence (P67809 2-324 limits assumed): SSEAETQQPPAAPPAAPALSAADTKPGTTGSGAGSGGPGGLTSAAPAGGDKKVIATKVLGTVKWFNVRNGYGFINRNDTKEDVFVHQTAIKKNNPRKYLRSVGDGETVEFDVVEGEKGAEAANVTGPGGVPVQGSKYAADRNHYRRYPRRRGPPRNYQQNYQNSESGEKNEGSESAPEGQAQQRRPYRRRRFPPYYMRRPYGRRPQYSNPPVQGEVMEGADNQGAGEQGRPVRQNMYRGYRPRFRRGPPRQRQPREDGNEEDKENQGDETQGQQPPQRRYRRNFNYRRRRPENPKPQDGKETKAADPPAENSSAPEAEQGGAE
Nucleolin (human), sequence (P19338 2-710 limits assumed): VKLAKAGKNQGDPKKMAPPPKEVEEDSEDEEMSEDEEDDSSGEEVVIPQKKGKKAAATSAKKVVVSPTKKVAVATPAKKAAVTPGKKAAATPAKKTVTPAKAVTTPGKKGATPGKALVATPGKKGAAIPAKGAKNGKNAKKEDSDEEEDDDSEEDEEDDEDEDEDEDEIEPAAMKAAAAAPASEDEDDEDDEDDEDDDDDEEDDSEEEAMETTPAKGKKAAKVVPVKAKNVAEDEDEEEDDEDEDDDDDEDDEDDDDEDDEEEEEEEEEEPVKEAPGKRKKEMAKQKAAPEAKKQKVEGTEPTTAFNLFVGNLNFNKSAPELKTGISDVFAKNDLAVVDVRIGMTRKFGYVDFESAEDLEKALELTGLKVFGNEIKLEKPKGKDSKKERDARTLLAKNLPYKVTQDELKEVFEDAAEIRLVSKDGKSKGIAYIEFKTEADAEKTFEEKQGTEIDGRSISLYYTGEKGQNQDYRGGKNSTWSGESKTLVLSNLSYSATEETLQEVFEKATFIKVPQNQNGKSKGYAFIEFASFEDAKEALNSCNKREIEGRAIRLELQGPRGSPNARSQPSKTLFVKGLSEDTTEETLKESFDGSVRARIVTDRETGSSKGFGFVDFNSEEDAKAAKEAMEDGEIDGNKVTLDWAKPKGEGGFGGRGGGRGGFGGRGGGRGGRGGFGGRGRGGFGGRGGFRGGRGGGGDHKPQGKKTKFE
Isoform 2 of Protein SET (human), sequence (Q01105 other isoform, or with tags, fused parts or gaps limits assumed): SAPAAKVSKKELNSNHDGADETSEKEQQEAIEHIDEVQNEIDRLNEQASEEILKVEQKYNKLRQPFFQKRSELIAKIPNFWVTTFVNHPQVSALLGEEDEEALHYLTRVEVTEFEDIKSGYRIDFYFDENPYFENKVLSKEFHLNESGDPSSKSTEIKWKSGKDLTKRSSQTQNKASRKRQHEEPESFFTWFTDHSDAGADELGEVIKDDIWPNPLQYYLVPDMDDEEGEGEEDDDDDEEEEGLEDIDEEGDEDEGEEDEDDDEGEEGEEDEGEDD
14-3-3 protein zeta/delta (human), sequence (P63104 whole entry, stated change not applied): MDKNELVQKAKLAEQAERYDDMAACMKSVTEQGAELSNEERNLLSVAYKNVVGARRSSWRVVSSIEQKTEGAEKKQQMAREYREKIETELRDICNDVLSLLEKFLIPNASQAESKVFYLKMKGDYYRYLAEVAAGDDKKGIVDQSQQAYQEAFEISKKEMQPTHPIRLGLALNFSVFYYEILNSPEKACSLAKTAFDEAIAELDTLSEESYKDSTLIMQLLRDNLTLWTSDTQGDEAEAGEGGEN

PIF15 affinity resin (Cys-C6 spacer-PIF15 conjugated to agarose) (peptide)
4: Ave [3] | Inject 1 [3] | Inject 2 [3] | Inject 3 (Thymosin alpha-1 (human))
3: Ave (Thrombospondin-4 (human)) | Inject 1 (Thrombospondin-4 (human)) | Inject 2 (Thrombospondin-4 (human)) | Inject 3 (Thrombospondin-4 (human)) | Ave (Thymosin alpha-1 (human)) | Ave [9] | Inject 1 [9] | Inject 2 [9] | Inject 3 [9]
5: Inject 3 [3]
1: Ave (Cofilin-1 (human)) | Inject 1 (Cofilin-1 (human)) | Inject 2 (Cofilin-1 (human)) | Inject 3 (Cofilin-1 (human)) | Ave [4] | Inject 1 [4] | Inject 2 [4] | Inject 3 [4] | Ave [6] | Inject 1 [6] | Inject 2 [6] | Inject 3 [6] | Ave [7] | Inject 1 [7] | Inject 2 [7] | Inject 3 [7] | Ave (Nucleolin (human)) | Inject 1 (Nucleolin (human)) | Inject 2 (Nucleolin (human)) | Inject 3 (Nucleolin (human))
7: Ave (Thrombospondin-1 (human)) | Inject 1 (Thrombospondin-1 (human)) | Inject 2 (Thrombospondin-1 (human)) | Inject 3 (Thrombospondin-1 (human))
2: Ave [1] | Inject 1 [1] | Inject 2 [1] | Inject 3 [1] | Ave [2] | Inject 1 [2] | Inject 2 [2] | Inject 3 [2] | Ave (Calmodulin (human)) | Inject 1 (Calmodulin (human)) | Inject 2 (Calmodulin (human)) | Inject 3 (Calmodulin (human)) | Ave (Calreticulin (human)) | Inject 1 (Calreticulin (human)) | Inject 2 (Calreticulin (human)) | Inject 3 (Calreticulin (human)) | Ave [5] | Inject 1 [5] | Inject 2 [5] | Inject 3 [5] | Ave [8] | Inject 1 [8] | Inject 2 [8] | Inject 3 [8] | Inject 1 (Thymosin alpha-1 (human)) | Inject 2 (Thymosin alpha-1 (human))
